Measured values reported in article PMC7826336.

Tests used:
[1] = molecular target: prekallikrein (PK); assay: SPR; Pioneer biosensor, COOHV chip; PMSF-treated PK (FC-1) or PKa (FC-3) immobilised by amine coupling; analytes diluted to 250 nM, OneStep gradient injection, 30 uL/min, dissociation 600 s; 22 °C; 10 mM Hepes, 140 mM NaCl, 1.5 mM CaCl2, 40 uM ZnCl2 pH 7.4; simple ka/kd 1 or 2 binding site model
[2] = molecular target: kallikrein (PKa) (UniProt P03952); assay: as above
Chain of kallikrein (PKa) (P03952 20-390, chain 1 of 2): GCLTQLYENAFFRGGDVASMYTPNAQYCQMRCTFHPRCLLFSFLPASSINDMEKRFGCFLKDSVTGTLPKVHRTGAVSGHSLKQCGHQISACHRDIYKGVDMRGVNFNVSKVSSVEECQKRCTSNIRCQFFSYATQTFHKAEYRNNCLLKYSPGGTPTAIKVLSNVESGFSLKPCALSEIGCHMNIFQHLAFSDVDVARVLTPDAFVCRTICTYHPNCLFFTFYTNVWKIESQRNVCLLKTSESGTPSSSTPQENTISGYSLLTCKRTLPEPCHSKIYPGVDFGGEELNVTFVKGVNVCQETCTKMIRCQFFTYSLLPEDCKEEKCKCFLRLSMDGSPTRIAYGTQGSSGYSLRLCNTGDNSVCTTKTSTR
Chain of kallikrein (PKa) (P03952 391-638, chain 2 of 2): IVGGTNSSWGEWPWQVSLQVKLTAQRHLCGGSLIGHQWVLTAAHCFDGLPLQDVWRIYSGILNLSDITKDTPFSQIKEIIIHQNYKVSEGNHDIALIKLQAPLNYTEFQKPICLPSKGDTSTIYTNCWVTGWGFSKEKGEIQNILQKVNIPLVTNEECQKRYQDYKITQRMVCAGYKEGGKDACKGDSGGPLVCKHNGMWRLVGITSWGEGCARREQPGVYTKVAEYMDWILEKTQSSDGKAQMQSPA

Row | Kd [1] | koff [1] | kon [1] | Kd [2] | koff [2] | kon [2] | Substance
1 | 0.492 nM | 6.45e-05 s⁻¹ | 131000 M⁻¹ s⁻¹ |  |  |  | activated Factor IX (FIXa) (from UniProt P00740 47-191; P00740 227-461) (enzyme)
2 | 0.245 nM | 3.73e-05 s⁻¹ | 152000 M⁻¹ s⁻¹ | 0.272 nM | 2.82e-05 s⁻¹ | 104000 M⁻¹ s⁻¹ | high molecular weight kininogen (HK) (natural protein)
3 | 2.17 nM | 0.000239 s⁻¹ | 110000 M⁻¹ s⁻¹ |  |  |  | Factor IX (FIX) (from UniProt P00740 47-461) (natural protein)
